This note sets out measurements from patent publication US20190255141 (published 2019).

Ends that are not written are not given here.

Experiment [1] deals with trypsin.
In experiment [2] the target is T1, human furin (human, UniProt P09958). The experiment in a line: other, pH 7.0, 37C.
Experiment [3] deals with T1, human furin. The experiment can be described thus: other, pH 7.0, 37C. This is another data set of the same source.

T1 sequence (P09958 108-715): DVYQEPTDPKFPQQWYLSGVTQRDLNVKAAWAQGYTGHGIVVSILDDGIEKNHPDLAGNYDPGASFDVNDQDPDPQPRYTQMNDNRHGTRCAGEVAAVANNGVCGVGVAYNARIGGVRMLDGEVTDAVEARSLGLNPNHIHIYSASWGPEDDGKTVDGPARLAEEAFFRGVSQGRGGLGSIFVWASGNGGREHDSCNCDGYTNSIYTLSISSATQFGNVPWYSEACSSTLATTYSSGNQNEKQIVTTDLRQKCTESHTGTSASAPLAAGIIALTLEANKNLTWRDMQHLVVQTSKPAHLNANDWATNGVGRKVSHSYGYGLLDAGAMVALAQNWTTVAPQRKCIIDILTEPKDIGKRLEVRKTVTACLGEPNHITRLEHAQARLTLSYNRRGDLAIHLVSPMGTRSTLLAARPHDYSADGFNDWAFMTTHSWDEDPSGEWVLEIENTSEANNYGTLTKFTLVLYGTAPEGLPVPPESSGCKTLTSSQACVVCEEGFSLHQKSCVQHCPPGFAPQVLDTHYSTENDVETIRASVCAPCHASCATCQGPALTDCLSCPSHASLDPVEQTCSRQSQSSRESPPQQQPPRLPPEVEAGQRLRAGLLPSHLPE

Take KAAAK (not fully specified (N-terminus, C-terminus); printed as C16-KAAAK-C16) [C16-KAAAK-C16]: the Ki in experiment [1] came out at 40.3 µM; in experiment [2], 1.72 µM. For KAAAAK (not fully specified) [C16-KAAAAK-C16], the affinity in experiment [2] corresponds to a Ki of 1.75 µM. That is a single-digit micromolar value. Lys-Ala-Lys (not fully specified (N-terminus, C-terminus); printed as C16-KAK-C16) [C16-KAK-C16]: the values for the Ki in experiment [1] and in experiment [2] were 15.2 µM and 0.54 µM, respectively. KAAK (not fully specified (N-terminus, C-terminus); printed as C16-KAAK-C16) [C16-KAAK-C16] showed an inhibitory constant (Ki) in experiment [2] of 0.97 µM. Molecule KGGGK (not fully specified) [C16-KGGGK-C16] registered an inhibition constant Ki in experiment [1] of 11.1 µM. Same read-out and setting: as for Lys-Gly-Lys (not fully specified (N-terminus, C-terminus); printed as C16-KGK-C16) [C16-KGK-C16], the figure is 41.6 µM. Take Lys-Lys (not fully specified (N-terminus, C-terminus); printed as C16-KK-C16) [C16-KK-C16]: the binding result in experiment [3] was “no binding”. In experiment [1], this molecule displayed an inhibition constant Ki of 84.7 µM.
